Data as given in PMC5737872.
Where two headings read alike, the source gives them in different places.

Key:
Test in all cases: X-ray crystallography
Nrd1 290-468 wt [1] = target: T1, Nrd1 290-468 wt (Saccharomyces cerevisiae, UniProt P53617 290-468)
T1 sequence: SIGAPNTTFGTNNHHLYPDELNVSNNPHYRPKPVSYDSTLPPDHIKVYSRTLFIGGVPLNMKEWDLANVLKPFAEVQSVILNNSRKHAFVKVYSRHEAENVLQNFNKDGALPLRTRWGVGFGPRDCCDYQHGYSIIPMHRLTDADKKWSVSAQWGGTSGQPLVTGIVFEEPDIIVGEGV

Nrd1 290-468 wt [2] = target: T1, Nrd1 290-468 wt; remark: listed apart in the source
Nrd1 290-468 wt [3] = target: T1, Nrd1 290-468 wt; remark: listed apart in the source

B1: GUAA (ssRNA)
RNA: GUAA
Q: Does B1 bind (Nrd1 290-468 wt [1])?
A: binds

B2: CGUAAA (ssRNA)
RNA: CGUAAA
Q: Does B2 bind (Nrd1 290-468 wt [2])?
A: binds

B3: UUAGUAAUCC (ssRNA)
RNA: UUAGUAAUCC
Q: Does B3 bind (Nrd1 290-468 wt [3])?
A: binds
